Reference: patent US7183387 (Genentech, dated 2007)

T1: human FcγRIIA-Arg131 α subunit extracellular domain-His6-GST fusion (human, UniProt P12318 34-217)
T1 construct: extracellular domain; also called FcγRIIA-R131; not shown: glutathione S transferase (GST)
T1 sequence: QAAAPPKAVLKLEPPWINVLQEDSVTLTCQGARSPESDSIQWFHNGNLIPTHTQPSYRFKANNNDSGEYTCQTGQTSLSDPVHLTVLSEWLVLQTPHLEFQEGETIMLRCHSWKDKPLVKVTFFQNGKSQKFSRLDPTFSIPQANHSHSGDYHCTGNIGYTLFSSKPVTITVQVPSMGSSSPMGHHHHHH

T2: human FcγRIIB α subunit extracellular domain-His6-GST fusion (human, UniProt P31994 43-217)
T2 construct: extracellular domain; also called CD32; not shown: glutathione S transferase (GST)
T2 sequence: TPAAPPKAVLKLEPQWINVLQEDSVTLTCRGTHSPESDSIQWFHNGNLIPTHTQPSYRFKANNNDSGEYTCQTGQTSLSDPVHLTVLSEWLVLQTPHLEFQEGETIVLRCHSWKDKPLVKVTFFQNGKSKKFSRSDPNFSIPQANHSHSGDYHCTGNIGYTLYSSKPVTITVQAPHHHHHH

B1: anti-IgE E27 IgG1 Gln295Ala (antibody)
heavy: not shown
light: DIQLTQSPSSLSASVGDRVTITCRASKPVDGEGDSYLNWYQQKPGKAPKLLIYAASYLESGVPSRFSGSGSGTDFTLTISSLQPEDFATYYCQQSHEDPYTFGQGTKVEIKRTVAAPSVFIFPPSDEQLKSGTASVVCLLNNFYPREAKVQWKVDNALQSGNSQESVTEQDSKDSTYSLSSTLTLSKADYEKHKVYACEVTHQGLSSPVTKSFNRGEC
notes: also called Q295(312)A
B2: anti-IgE E27 IgG1 His433Ala (antibody)
heavy: not shown
light: B1 light
B3: anti-IgE E27 IgG1 Ile253Ala (antibody)
heavy: not shown
light: B1 light
B4: anti-IgE E27 IgG1 Pro238Ala (antibody)
heavy: not shown
light: B1 light
B5: anti-IgE E27 IgG1 Ser267Ala (antibody)
heavy: not shown
light: B1 light
notes: also called G15 S267A
B6: anti-IgE E27 IgG1 Lys334Ala (antibody)
heavy: not shown
light: B1 light
notes: also called G55 K334A
B7: anti-IgE E27 IgG1 Ser298Ala (antibody)
heavy: not shown
light: B1 light
notes: also called G36 S298A
B8: anti-IgE E27 IgG1 Glu382Ala (antibody)
heavy: not shown
light: B1 light
B9: anti-IgE E27 IgG1 Gln362Ala (antibody)
heavy: not shown
light: B1 light
notes: also called Gln362A1a
B10: anti-IgE E27 IgG1 Ser424Ala (antibody)
heavy: not shown
light: B1 light
B11: anti-IgE E27 IgG1 Gln311Ala (antibody)
heavy: not shown
light: B1 light
B12: anti-IgE E27 IgG1 His268Ala (antibody)
heavy: not shown
light: B1 light
notes: also called H281A (268 in EU numbering); G16 H268A
B13: anti-IgE E27 IgG1 Glu272Ala (antibody)
heavy: not shown
light: B1 light
B14: anti-IgE E27 IgG1 Glu269Ala (antibody)
heavy: not shown
light: B1 light
notes: also called E269(282)A
B15: anti-IgE E27 IgG1 Glu430Ala (antibody)
heavy: not shown
light: B1 light
B16: anti-IgE E27 IgG1 Lys317Ala (antibody)
heavy: not shown
light: B1 light
notes: also called Lys317A1a
B17: anti-IgE E27 IgG1 Glu333Ala (antibody)
heavy: not shown
light: B1 light
notes: also called G54 E333A
B18: anti-IgE E27 IgG1 Lys338Ala (antibody)
heavy: not shown
light: B1 light
B19: anti-IgE E27 IgG1 Ser337Ala (antibody)
heavy: not shown
light: B1 light
B20: anti-IgE E27 IgG1 Lys360Ala (antibody)
heavy: not shown
light: B1 light
B21: anti-IgE E27 IgG1 Glu258Ala (antibody)
heavy: not shown
light: B1 light
B22: anti-IgE E27 IgG1 Leu309Ala (antibody)
heavy: not shown
light: B1 light
B23: anti-IgE E27 IgG1 Thr256Ala (antibody)
heavy: not shown
light: B1 light
B24: anti-IgE E27 IgG1 Lys288Ala (antibody)
heavy: not shown
light: B1 light
B25: anti-IgE E27 IgG1 Lys290Ala (antibody)
heavy: not shown
light: B1 light
notes: also called K290(307)A
B26: anti-IgE E27 IgG1 Lys326Ala (antibody)
heavy: not shown
light: B1 light
B27: anti-IgE E27 IgG1 Ser239Ala (antibody)
heavy: not shown
light: B1 light
B28: anti-IgE E27 IgG1 His285Ala (antibody)
heavy: not shown
light: B1 light
B29: anti-IgE E27 IgG1 Ser415Ala (antibody)
heavy: not shown
light: B1 light

What follows are binders tested against T3, human neonatal Fc receptor (FcRn), biotinylated (human, UniProt P55899 24-297; P61769 21-119, biotinylated (biotin-X-NHS)) (assay: FcRn ELISA, pH 6.0;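 also: Streptavidin-captured FcRn plates, IgG variants titrated 2 h at pH 6.0, peroxidase anti-human IgG read at 450 nm, variant over standard concentration at the standard curve mid-point absorbance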).
T3 construct: captured on streptavidin plates

ratio to native IgG1 | Binder
0.79 ratio | B1
0.41 ratio | B2
0.1 ratio | B3
1.49 ratio | B4
1.08 ratio | B5
1.05 ratio | B6
0.8 ratio | B7
1.51 ratio | B8
1.25 ratio | B9
1.41 ratio | B10
1.62 ratio | B11
1.02 ratio | B12
1.34 ratio | B13
1.05 ratio | B14
0.93 ratio | B15
1.44 ratio | B16
1.03 ratio | B17
1.14 ratio | B18
1.03 ratio | B19
1.3 ratio | B20
1.18 ratio | B21
0.63 ratio | B22
1.91 ratio | B23
0.38 ratio | B24
0.79 ratio | B25
1.03 ratio | B26
1.06 ratio | B27
0.85 ratio | B28
0.44 ratio | B29

What follows are binders tested against T4, human FcγRIA α subunit extracellular domain-His6-GST fusion (human, UniProt P12314 16-292) (assay: FcγRI ELISA and THP-1 cells, averaged).
T4 construct: extracellular domain; also called GST-FcγRIA; CD64; not shown: glutathione S transferase (GST)
T4 sequence (P12314 other isoform, or with tags, fused parts or gaps): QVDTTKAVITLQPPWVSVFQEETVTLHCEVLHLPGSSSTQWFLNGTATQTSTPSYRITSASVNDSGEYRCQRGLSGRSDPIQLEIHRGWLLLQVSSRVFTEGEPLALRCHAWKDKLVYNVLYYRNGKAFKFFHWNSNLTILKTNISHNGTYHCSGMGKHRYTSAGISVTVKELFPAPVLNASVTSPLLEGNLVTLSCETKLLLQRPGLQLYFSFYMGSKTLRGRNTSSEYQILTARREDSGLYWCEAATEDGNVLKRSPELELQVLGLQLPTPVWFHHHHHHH

ratio to native IgG1 | Binder
1 ratio | B1
0.98 ratio | B2
0.96 ratio | B3
0.6 ratio | B4
1.09 ratio | B5
1.06 ratio | B6
1.11 ratio | B7
1.06 ratio | B8
1 ratio | B9
0.98 ratio | B10
0.93 ratio | B11
1.09 ratio | B12
1.05 ratio | B13
0.61 ratio | B14
1.05 ratio | B15
0.92 ratio | B16
0.98 ratio | B17
0.9 ratio | B18
1.17 ratio | B19
1.02 ratio | B20
1.18 ratio | B21
0.93 ratio | B22
1.01 ratio | B23
0.88 ratio | B24
1.01 ratio | B25
1.03 ratio | B26
0.81 ratio | B27
0.96 ratio | B28
1.04 ratio | B29

The binders below were run against T1, human FcγRIIA-Arg131 α subunit … (assay: hexamer ELISA).

ratio to native IgG1 | Binder
0.62 ratio | B1
0.92 ratio | B2
1.14 ratio | B3
0.38 ratio | B4
1.52 ratio | B5
1.01 ratio | B6
0.4 ratio | B7
0.95 ratio | B8
1.03 ratio | B9
1.04 ratio | B10
1.11 ratio | B11
1.21 ratio | B12
1.23 ratio | B13
0.65 ratio | B14
1.24 ratio | B15
1.13 ratio | B16
0.92 ratio | B17
0.78 ratio | B18
1.22 ratio | B19
1.12 ratio | B20
1.33 ratio | B21
1.13 ratio | B22
1.41 ratio | B23
1.15 ratio | B24
1.3 ratio | B25
1.23 ratio | B26
0.73 ratio | B27
1.26 ratio | B28
0.9 ratio | B29

The binders below were run against T5, human FcγRIIIA-Phe158 α subunit extracellular domain-His6-GST fusion (human, UniProt P08637 17-208) (assay: hexamer ELISA).
T5 construct: extracellular domain; also called FcγRIIIA-F158; CD16; not shown: glutathione S transferase (GST)
T5 sequence (P08637 other isoform, or with tags, fused parts or gaps): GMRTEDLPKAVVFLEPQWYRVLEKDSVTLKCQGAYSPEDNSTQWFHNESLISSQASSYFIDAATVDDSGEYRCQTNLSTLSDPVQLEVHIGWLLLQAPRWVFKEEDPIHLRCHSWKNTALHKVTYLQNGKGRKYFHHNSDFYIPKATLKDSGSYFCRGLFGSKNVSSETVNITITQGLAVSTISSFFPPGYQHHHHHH

ratio to native IgG1 | Binder
0.25 ratio | B1
1.02 ratio | B2
1.08 ratio | B3
0.07 ratio | B4
1.05 ratio | B5
1.39 ratio | B6
1.34 ratio | B7
0.76 ratio | B8
1.02 ratio | B9
0.89 ratio | B10
0.92 ratio | B11
0.54 ratio | B12
0.8 ratio | B13
0.45 ratio | B14
1.2 ratio | B15
1.1 ratio | B16
1.27 ratio | B17
0.15 ratio | B18
0.94 ratio | B19
1.23 ratio | B20
1.12 ratio | B21
1.07 ratio | B22
1.32 ratio | B23
1.06 ratio | B24
1.31 ratio | B25
1.23 ratio | B26
0.26 ratio | B27
0.87 ratio | B28
0.86 ratio | B29

The binders below were run against T2, human FcγRIIB α subunit extracellular … (assay: hexamer ELISA).

ratio to native IgG1 | Binder
0.5 ratio | B1
0.79 ratio | B2
1.18 ratio | B3
0.36 ratio | B4
1.84 ratio | B5
0.9 ratio | B6
0.23 ratio | B7
0.84 ratio | B8
1.02 ratio | B9
1.02 ratio | B10
1.19 ratio | B11
1.44 ratio | B12
1.53 ratio | B13
0.75 ratio | B14
1.28 ratio | B15
1.18 ratio | B16
0.76 ratio | B17
0.63 ratio | B18
1.26 ratio | B19
1.12 ratio | B20
1.65 ratio | B21
1.26 ratio | B22
2.06 ratio | B23
1.14 ratio | B24
1.38 ratio | B25
1.41 ratio | B26
0.76 ratio | B27
1.23 ratio | B28
0.88 ratio | B29
